Columns and labels:
[1] = target: α4β1 integrin (VLA-4) (UniProt P13612); assay: HEL cell adhesion to coated human ICAM-4Fc (2.5 ug/ml); value is for the MIXTURE of SEQ ID NO: 9, 10 and 11, each peptide 750 uM
[2] = target: α4β1 integrin (VLA-4) (UniProt P13612); assay: HEL cell adhesion to coated human ICAM-4Fc (2.5 ug/ml); value is for the MIXTURE of SEQ ID NO: 9, 10 and control peptide 13, each peptide 750 uM
[3] = target: α4β1 integrin (VLA-4) (UniProt P13612); assay: HEL cell adhesion to coated human ICAM-4Fc (2.5 ug/ml); value is for the MIXTURE of SEQ ID NO: 9, 11 and control peptide 13, each peptide 750 uM
[4] = target: α4β1 integrin (VLA-4) (UniProt P13612); assay: HEL cell adhesion to coated human ICAM-4Fc (2.5 ug/ml); value is for the MIXTURE with control peptide SEQ ID NO: 13, each peptide 750 uM
[5] = target: α4β1 integrin (VLA-4) (UniProt P13612); assay: HEL cell adhesion to coated human ICAM-4Fc (5 ug/ml); value is for the MIXTURE of SEQ ID NO: 9 and 10, each peptide 500 uM
[6] = target: α4β1 integrin (VLA-4) (UniProt P13612); assay: HEL cell adhesion to coated human ICAM-4Fc (2.5 ug/ml), peptide 750 uM; competitor human ICAM-4Fc
[7] = target: α4β1 integrin (VLA-4) (UniProt P13612); assay: HEL cell adhesion to coated human ICAM-4Fc (2.5 ug/ml); value is for the MIXTURE of SEQ ID NO: 9 and 11, each peptide 750 uM
[8] = target: α4β1 integrin (VLA-4) (UniProt P13612); assay: HEL cell adhesion to coated murine ICAM-4Fc (5 ug/ml); value is for the MIXTURE of SEQ ID NO: 9 and 10, each peptide 500 uM
[9] = target: α4β1 integrin (VLA-4) (UniProt P13612); assay: HEL cell adhesion to coated murine ICAM-4Fc (5 ug/ml), peptide 500 uM; competitor murine ICAM-4Fc
[10] = target: α4β1 integrin (VLA-4) (UniProt P13612); assay: HEL cell adhesion to coated murine ICAM-4Fc (5 ug/ml); value is for the MIXTURE with control peptide SEQ ID NO: 13, each peptide 500 uM
[11] = target: α4β1 integrin (VLA-4) (UniProt P13612); assay: HEL cell adhesion to coated human ICAM-4Fc (5 ug/ml), peptide 500 uM; competitor human ICAM-4Fc
[12] = target: α4β1 integrin (VLA-4) (UniProt P13612); assay: HEL cell adhesion to coated human ICAM-4Fc (2.5 ug/ml); value is for the MIXTURE of SEQ ID NO: 9 and 10, each peptide 750 uM
[13] = target: α4β1 integrin (VLA-4) (UniProt P13612); assay: HEL cell adhesion to coated human ICAM-4Fc (5 ug/ml); value is for the MIXTURE with control peptide SEQ ID NO: 13, each peptide 500 uM
[14] = target: α4β1 integrin (VLA-4) (UniProt P13612); assay: HEL cell adhesion to coated human ICAM-4Fc (2.5 ug/ml); value is for the MIXTURE of SEQ ID NO: 10, 11 and control peptide 13, each peptide 750 uM
[15] = target: α4β1 integrin (VLA-4) (UniProt P13612); assay: HEL cell adhesion to coated human ICAM-4Fc (2.5 ug/ml); value is for the MIXTURE of SEQ ID NO: 10 and 11, each peptide 750 uM
[16] = target: α4β1 integrin (VLA-4) (UniProt P13612); assay: HEL cell adhesion to coated human NCAMFc (control), no peptide

Sequence of α4β1 integrin (VLA-4) (P13612 34-1032, chain 1 of 2): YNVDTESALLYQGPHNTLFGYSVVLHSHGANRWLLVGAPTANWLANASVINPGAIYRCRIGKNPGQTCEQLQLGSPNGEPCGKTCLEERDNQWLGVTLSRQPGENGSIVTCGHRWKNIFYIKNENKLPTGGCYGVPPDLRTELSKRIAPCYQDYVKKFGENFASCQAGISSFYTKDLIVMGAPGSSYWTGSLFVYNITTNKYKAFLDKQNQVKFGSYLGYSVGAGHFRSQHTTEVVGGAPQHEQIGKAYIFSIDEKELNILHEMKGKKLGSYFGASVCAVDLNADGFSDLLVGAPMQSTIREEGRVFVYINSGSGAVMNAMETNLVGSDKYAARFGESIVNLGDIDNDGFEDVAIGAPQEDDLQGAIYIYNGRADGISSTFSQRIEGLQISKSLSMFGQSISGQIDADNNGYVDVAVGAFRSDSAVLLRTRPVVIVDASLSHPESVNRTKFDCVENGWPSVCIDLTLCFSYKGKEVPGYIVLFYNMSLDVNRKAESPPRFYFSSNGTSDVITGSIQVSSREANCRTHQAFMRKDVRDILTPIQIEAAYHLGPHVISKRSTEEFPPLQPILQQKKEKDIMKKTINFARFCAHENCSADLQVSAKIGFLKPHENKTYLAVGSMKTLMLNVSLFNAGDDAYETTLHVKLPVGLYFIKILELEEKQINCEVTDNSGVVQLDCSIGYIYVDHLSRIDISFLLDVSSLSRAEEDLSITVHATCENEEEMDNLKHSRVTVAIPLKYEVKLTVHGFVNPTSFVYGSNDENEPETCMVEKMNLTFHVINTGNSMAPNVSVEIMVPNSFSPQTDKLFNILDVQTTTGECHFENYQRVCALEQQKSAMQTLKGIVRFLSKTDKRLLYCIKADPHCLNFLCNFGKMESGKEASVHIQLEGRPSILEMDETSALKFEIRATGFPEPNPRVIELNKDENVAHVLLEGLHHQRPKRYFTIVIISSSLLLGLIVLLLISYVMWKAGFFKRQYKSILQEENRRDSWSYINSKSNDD
Sequence of α4β1 integrin (VLA-4) (P05556 21-798, chain 2 of 2, further chain): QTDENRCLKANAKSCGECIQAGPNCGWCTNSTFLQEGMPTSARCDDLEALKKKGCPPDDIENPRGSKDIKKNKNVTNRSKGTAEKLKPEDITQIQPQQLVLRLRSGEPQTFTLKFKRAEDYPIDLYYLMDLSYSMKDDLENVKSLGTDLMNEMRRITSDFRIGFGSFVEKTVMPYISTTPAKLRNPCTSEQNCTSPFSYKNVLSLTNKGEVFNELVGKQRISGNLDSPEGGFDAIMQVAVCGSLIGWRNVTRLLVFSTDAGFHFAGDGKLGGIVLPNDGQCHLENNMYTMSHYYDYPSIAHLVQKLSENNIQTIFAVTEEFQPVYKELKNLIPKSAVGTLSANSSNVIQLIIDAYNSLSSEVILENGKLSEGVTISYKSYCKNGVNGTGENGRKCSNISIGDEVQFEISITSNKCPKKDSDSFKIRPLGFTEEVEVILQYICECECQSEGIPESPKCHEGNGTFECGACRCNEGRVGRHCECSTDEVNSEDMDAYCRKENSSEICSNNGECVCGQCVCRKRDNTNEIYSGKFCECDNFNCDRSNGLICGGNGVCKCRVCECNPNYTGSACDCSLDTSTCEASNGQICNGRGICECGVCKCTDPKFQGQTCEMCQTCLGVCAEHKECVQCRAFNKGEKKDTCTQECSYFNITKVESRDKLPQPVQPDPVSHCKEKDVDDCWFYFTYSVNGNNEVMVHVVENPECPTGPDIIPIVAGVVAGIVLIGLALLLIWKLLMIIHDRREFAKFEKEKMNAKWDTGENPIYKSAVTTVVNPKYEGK

| Substance | input cells bound as % of binding to ICAM-4Fc in the absence of peptides [1] | input cells bound as % of binding to ICAM-4Fc in the absence of peptides [2] | input cells bound as % of binding to ICAM-4Fc in the absence of peptides [3] | input cells bound as % of binding to ICAM-4Fc in the absence of peptides [4] | input cells bound as % of binding to ICAM-4Fc in the absence of peptides [5] | input cells bound as % of binding to ICAM-4Fc in the absence of peptides [6] | input cells bound as % of binding to ICAM-4Fc in the absence of peptides [7] | input cells bound as % of binding to murine ICAM-4Fc in the absence of peptides [8] | input cells bound as % of binding to murine ICAM-4Fc in the absence of peptides [9] | input cells bound as % of binding to murine ICAM-4Fc in the absence of peptides [10] | input cells bound as % of binding to ICAM-4Fc in the absence of peptides [11] | input cells bound as % of binding to ICAM-4Fc in the absence of peptides [12] | input cells bound as % of binding to ICAM-4Fc in the absence of peptides [13] | input cells bound as % of binding to ICAM-4Fc in the absence of peptides [14] | input cells bound as % of binding to ICAM-4Fc in the absence of peptides [15] | input cells bound as % of binding to ICAM-4Fc in the absence of peptides [16] | input cells bound as % of binding to murine ICAM-4Fc in the absence of peptides [16] |
| --- | --- | --- | --- | --- | --- | --- | --- | --- | --- | --- | --- | --- | --- | --- | --- | --- | --- |
| svpFWVrms peptide (SEQ ID NO: 9) | 42% | 49% | 42% | 59% | 35% | 64% | 43% | 47% | 67% | 70% | 61% | 52% | 60% |  |  |  |  |
| tRwATSRit peptide (SEQ ID NO: 10) | 42% | 49% |  | 55% | 35% | 58% |  | 47% | 58% | 55% | 58% | 52% | 56% | 40% | 41% |  |  |
| human NCAMFc (from UniProt P13591 20-718) (Fc fusion) |  |  |  |  |  |  |  |  |  |  |  |  |  |  |  | 3% | 19% |
| aWssLahcl peptide (SEQ ID NO: 11) | 42% |  | 42% | 46% |  | 50% | 43% |  |  |  |  |  |  | 40% | 41% |  |  |
